Assay [1] addresses CaM-free full-length murine inducible nitric-oxide synthase, expressed and purified in the absence of CaM (murine) (UniProt P29477).
Assay [2] has the same target. Briefly: ITC; single injection mode; 20 μM iNOSfl (-CaM) (dissolved in 200 μl) against 8 μM CaM (dissolved in 2 ml); 40 mM EPPS, 10% glycerol, 150 mM NaCl, 2 mM Ca2+; single-site binding model.

Sequence of UniProt P29477 (P29477 whole entry): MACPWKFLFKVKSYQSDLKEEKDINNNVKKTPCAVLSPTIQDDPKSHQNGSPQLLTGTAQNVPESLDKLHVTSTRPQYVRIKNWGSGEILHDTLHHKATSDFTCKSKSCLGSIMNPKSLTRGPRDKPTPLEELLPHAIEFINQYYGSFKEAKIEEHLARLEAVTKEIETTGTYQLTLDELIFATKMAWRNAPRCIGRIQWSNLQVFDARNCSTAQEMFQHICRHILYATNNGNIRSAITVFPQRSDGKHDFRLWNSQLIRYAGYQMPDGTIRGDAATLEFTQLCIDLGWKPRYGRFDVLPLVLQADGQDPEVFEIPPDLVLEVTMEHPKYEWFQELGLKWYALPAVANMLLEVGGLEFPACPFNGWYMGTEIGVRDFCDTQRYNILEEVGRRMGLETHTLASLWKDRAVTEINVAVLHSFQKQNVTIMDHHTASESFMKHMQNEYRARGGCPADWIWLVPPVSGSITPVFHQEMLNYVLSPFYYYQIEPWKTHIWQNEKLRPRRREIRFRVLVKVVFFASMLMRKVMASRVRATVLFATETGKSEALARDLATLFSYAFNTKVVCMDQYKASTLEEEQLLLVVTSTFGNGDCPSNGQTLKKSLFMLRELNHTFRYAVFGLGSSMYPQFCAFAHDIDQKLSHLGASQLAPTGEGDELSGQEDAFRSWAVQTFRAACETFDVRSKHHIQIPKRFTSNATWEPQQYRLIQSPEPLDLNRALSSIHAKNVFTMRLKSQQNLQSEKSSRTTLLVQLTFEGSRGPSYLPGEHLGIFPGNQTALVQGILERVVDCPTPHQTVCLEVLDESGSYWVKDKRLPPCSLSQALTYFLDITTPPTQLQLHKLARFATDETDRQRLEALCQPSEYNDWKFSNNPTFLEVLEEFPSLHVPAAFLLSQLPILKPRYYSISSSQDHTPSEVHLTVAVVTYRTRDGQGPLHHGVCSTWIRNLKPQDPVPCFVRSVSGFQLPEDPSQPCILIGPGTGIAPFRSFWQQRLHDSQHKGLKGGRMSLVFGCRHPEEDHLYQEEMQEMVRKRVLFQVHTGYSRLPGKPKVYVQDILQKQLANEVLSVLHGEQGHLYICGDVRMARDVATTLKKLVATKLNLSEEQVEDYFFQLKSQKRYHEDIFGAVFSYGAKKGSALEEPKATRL

In the case of “calmodulin (added in vitro) (from UniProt P0DP23 1-149) (natural protein)”, the steady-state NO synthesis activity (oxyhemoglobin assay, 1 μM CaM in the assay buffer, 25°C) (min^-1 per μg of protein) in assay [1] stood at 10.8. Further, the dH in assay [2] was 489 kcal/mol.
